According to article PMC8059062 (The Journal of Biological Chemistry, 2021):
Ends that are not written are not given here.

Columns and labels:
[1] = molecular target: T1, full-length FGF12A (aa 1-243) (human, UniProt P61328-1 1-243); assay: co-purification after refolding; denatured His-GST-FGF12A refolded by rapid dilution at 4 C into buffer with CaM+NaV1.2CTD (0.2 uM); tag cleaved, nickel resin repass, anion exchange (pH 8.5-7.4, KCl 0-300 mM) removes CaM; details: both partners purified
T1 construct: four nonnative residues left at the N terminus after removal of the His-GST tag with 3C protease; human FGF12A (A-type splice variant of FGF12), full-length, aa 1-243; Obtained only as the FGF12A+NaV1.2CTD complex; not shown: His-GST, N-terminal, cleaved
T1 sequence: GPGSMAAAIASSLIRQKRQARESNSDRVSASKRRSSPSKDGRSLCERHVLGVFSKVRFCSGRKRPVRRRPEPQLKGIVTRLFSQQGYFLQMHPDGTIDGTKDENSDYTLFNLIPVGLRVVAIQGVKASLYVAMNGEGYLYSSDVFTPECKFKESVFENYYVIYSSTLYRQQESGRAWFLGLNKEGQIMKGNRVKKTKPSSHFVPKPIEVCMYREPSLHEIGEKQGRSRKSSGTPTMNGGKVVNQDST

[2] = molecular target: T2, calmodulin, wild type, full-length (aa 1-148) (human, UniProt P0DP23 1-149); assay: other fluorescence titration; YFP-CFP FRET biosensor (>=1 nM) with Ca2+-saturated WT or mutant CaM, emission spectra and equilibrium titrations; 50 mM HEPES, 100 mM KCl, 1 mM MgCl2, 50 uM EGTA, 5 mM NTA, 1.5 uM BSA, 500 uM DTT, 1 mM CaCl2, pH 7.4, 22 C
T2 construct: human calmodulin, full-length, aa 1-148; numbers count on: the protein without the initial Met (UniProt numbers are one higher); Ca2+-saturated ((Ca2+)4-CaM) and Ca2+-depleted (apo) states are the same molecule; the state is told by the assay; 15N-labelled in some NMR samples; also called CaM; WT CaM; source: bacterially overexpressed (pT7-7 vector) and purified; also bacterially coexpressed with …

[3] = molecular target: T2, calmodulin, wild type, full-length (aa …); assay: NMR 15N-HSQC chemical shift comparison; copurified 1:1 complexes, one partner 15N-labelled (290-600 uM), compared with isolated (Ca2+)2-CaMN and (Ca2+)2-CaMC and with each other; 50 mM HEPES, 100 mM KCl, 1 mM MgCl2, 50 uM EGTA, 5 mM NTA, 10 mM CaCl2, pH 7.4, 25 C; details: both partners purified
[4] = molecular target: T2, calmodulin, wild type, full-length (aa …); assay: not stated; (Ca2+)4-CaM binding to NaV IQ motifs; data not shown

Binder	Kd [2]	also measured
NaV1.2CTD (fragment of the NaV1.2 C-terminal domain, residues 1777-1937, with EFL and IQ motif) (domain or fragment, human, four nonnative residues left at the N terminus after removal of the His-GST tag with 3C protease; human NaV1.2 (SCN2A) C-terminal domain fragment, aa 1777-1937, contains the EF-hand like domain and the IQ motif; source: bacterial coexpression with CaM, copurified; not shown: His-GST, N-terminal, cleaved) GPGSENFSVATEESAEPLSEDDFEMFYEVWEKFDPDATQFIEFAKLSDFADALDPPLLIAKPNKVQLIAMDLPMVSGDRIHCLDILFAFTKRVLGESGEMDALRIQMEERFMASNPSKVSYEPITTTLKRKQEEVSAIIIQRAYRRYLLKQKVKKVSSIYKKDKG		binding result [1]: binds
KSLCQKQLLILLSKVRLCGGRPARPDR (domain or fragment, cysteine pairing not given here; also: fused between YFP and CFP, source: expressed from a pET21B vector) [FGF11A_(CaMBD) biosensor (FGF11A CaMBD, residues 36-62, between YFP and CFP)]	19 nM	
MAAAIASSLIRQKRQARESNSDR (domain or fragment, source: expressed from a pET21B vector) [FGF12ALTP biosensor (FGF12A LTP, residues 1-23, between YFP and CFP)]	576 nM	
FGF12ANTD (FGF12A N-terminal domain, aa 1-70) (domain or fragment, four nonnative residues left at the N terminus after removal of the His-GST tag with 3C protease; human FGF12A N-terminal domain, aa 1-70, contains LTP and CaMBD; 15N-labelled in some NMR samples; source: bacterial coexpression with CaM, copurified; not shown: His-GST, N-terminal, cleaved) GPGSMAAAIASSLIRQKRQARESNSDRVSASKRRSSPSKDGRSLCERHVLGVFSKVRFCSGRKRPVRRRPEPQL		binding result [3]: binds
RSLCERHVLGVFSKVRFCSGRKRPVRR (domain or fragment, cysteine pairing not given here; also: fused between YFP and CFP, source: expressed from a pET21B vector) [FGF12A_(CaMBD) biosensor (FGF12A CaMBD, residues 38-64, between YFP and CFP)]	107 nM	
KTSCDKNKLNVFSRVKLFGSKKRRRR (domain or fragment, also: fused between YFP and CFP, source: expressed from a pET21B vector) [FGF13A_(CaMBD) biosensor (FGF13A CaMBD, residues 35-60, between YFP and CFP)]	13 nM	
EEVSAIIIQRAYRRYLLKQKVKKVSSIYKK (domain or fragment, IQ motif of NaV1.2; also called IQ motif of NaV1.2) [NaV1.2 IQ motif]		Kd [4]: 19.8 nM
